Experimental data: publication PMC11493965, “Ethane-oxidising archaea couple CO2 generation to F420 reduction” (Nature Communications, 2024)

Target: ζ subunit (F420-reductase subunit) of the CODH component of the ACDS from Candidatus Ethanoperedens thermophilum (Candidatus Ethanoperedens thermophilum)
Assay: crystal structure; α2ε2ζ2 ACDS subcomplex purified natively as one complex; sitting drop, anaerobic, 20 °C, 20% PEG 6000, 100 mM MES pH 6.0, 200 mM ammonium chloride, 1 mM FAD and FMN added; refined to 1.89 Å

“ζ subunit (F420-reductase subunit) of the CODH component of the ACDS from Candidatus Ethanoperedens thermophilum (natural protein)” gave a stoichiometry N of 2.
